Reference: PMC6181439

Biological target: Recombinant mouse PrP lacking FT (90-230) (mouse) (UniProt P04925)
Experiment: SPR
Conditions: bispecific antibody

## scPOM-bi, POM1-POM2 bispecific single chain antibody
  Kd: 3.6 nM
  koff: 0.00031 s⁻¹
